T1: CD3ed (CD3 epsilon/delta fusion protein) (human)
T1 construct: Expressed in HEK293 and purified on His60 resin and by SEC; also called soluble human CD3ed antigen; hCD3ed
T1 chain: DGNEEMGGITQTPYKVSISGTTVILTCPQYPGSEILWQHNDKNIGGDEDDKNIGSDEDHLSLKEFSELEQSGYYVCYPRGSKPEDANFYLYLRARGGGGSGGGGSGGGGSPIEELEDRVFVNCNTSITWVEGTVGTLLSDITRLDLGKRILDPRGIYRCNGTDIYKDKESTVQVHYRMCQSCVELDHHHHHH


Experiments:
[1] = target: T2, human CD3 epsilon subunit (CD3e), as cell surface CD3 on Jurkat cells and on naive human T cells (human, UniProt P07766 23-207); assay: FACS on Jurkat cells expressing CD3, monovalent IgG
T2 construct: On the cells CD3 epsilon is part of the whole CD3/TCR complex
Description: All the mutants were generated as monovalent IgG antibodies using standard transient HEK293 expression followed by purification using Protein A column. The resulting clones were tested for binding to Jurkat cells expressing CD3 using FACS and self-association potential using AC-SINS as described above in Example 7. As shown in Table 16, five molecules with improved epivax score and reduced T-cell epitopes and retained affinity to CD3 were chosen to move forward and test in diabody-Fc format. The 2B5v6 variants with improved epivax scores were compared to the parental 2B5v6.
Target sequence in this assay (P07766 23-207 limits assumed): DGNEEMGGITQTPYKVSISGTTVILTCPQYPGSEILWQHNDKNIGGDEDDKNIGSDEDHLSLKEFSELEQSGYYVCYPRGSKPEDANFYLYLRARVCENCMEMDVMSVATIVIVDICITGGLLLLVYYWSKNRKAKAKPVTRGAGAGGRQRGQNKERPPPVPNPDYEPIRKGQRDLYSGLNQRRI

[2] = target: T2, human CD3 epsilon subunit (CD3e), as …; assay: cell-based or functional assay
[3] = target: T1, CD3ed (CD3 epsilon/delta fusion protein); assay: SPR, recombinant human CD3
[4] = target: T2, human CD3 epsilon subunit (CD3e), as …; assay: flow cytometry titration on naive human T cells (PE-A Geo Mean against Ab in nM); Kd printed beside the legend

| Binder | EC50 [1] [nM] | Kd [3] [nM] | In vitro Cytotoxicity [2] [nM] | other results |
| --- | --- | --- | --- | --- |
| 2B5v6-0517 (antibody, V domains shown, Tested as a monovalent IgG; also called 2B5-0517) VH: EVQLVESGGGLVQPGGSLRLSCAASGFTFSDYYMTWVRQAPGKGLEWVAFIRNQARGYTSDHQPSVKGRFTISRDNAKNSLYLQMNSLRAEDTAVYYCARDRPSYYVLDYWGQGTTVTVSS VL: DIQMTQSPSSLSASVGDRVTITCTSSQSLFNVRSGKNYLAWYQQKPGKAPKLLIYWASTRESGVPSRFSGSGSGTDFTLTISSLQPEDFATYYCKQSYDLFTFGGGTKVEIK | 9.9 |  |  |  |
| 2B5v6-0522 (antibody, V domains shown, Tested as a monovalent IgG; also called 2B5-0522) VH: EVQLVESGGGLVQPGGSLRLSCAASGFTFSDYYMTWVRQAPGKGLEWVAFIRNQARGYTSDHQPSVKGRFTISRDNAKNSLYLQMNSLRAEDTAVYYCARDRPSYYVLDYWGQGTTVTVSS VL: DIQMTQSPSSLSASVGDRVTITCTSSQSLFNVRSQKNYLAWYQQKPGKAPKLLIYWASDRESGVPSRFSGSGSGTDFTLTISSLQPEDFATYYCKQSYDLFTFGGGTKVEIK | 8.6 |  |  |  |
| 2B5v6-0533 (antibody, V domains shown, Tested as a monovalent IgG; also called 2B5-0533) VH: EVQLVESGGGLVQPGGSLRLSCAASGFTFSDYYMTWVRQAPGKGLEWVAFIRNQARGYTSDHNPSVKGRFTISRDNAKNSLYLQMNSLRAEDTAVYYCARDRPSYYVLDYWGQGTTVTVSS VL: DIQMTQSPSSLSASVGDRVTITCTSSQSLFNVRSGKNYLAWYQQKPGKAPKLLIYWASTRESGVPSRFSGSGSGTDFTLTISSLQPEDFATYYCKQSYDLFTFGGGTKVEIK | 6.1 |  |  |  |
| 2B5v6-0538 (antibody, V domains shown, Tested as a monovalent IgG; also called 2B5-0538) VH: EVQLVESGGGLVQPGGSLRLSCAASGFTFSDYYMTWVRQAPGKGLEWVAFIRNQARGYTSDHNPSVKGRFTISRDNAKNSLYLQMNSLRAEDTAVYYCARDRPSYYVLDYWGQGTTVTVSS VL: DIQMTQSPSSLSASVGDRVTITCTSSQSLFNVRSQKNYLAWYQQKPGKAPKLLIYWASDRESGVPSRFSGSGSGTDFTLTISSLQPEDFATYYCKQSYDLFTFGGGTKVEIK | 9.2 |  |  |  |
| GUCY2C-1679 bispecific antibody (bispecific antibody, Bispecific diabody-Fc; also called GUCY2c bispecific with CD3 variant 2B5-1040) chain 1: DIQLTQSPSSLSASVGDRVTITCRASESVDYYGSSLLQWYQQKPGKAPKLLIYAASKLASGVPSRFSGSGSGTDFTLTISSLQPEDFATYYCQQTRKAYTFGQGTKLEIKGGGSGGGGEVQLVESGGGLVQPGGSLRLSCAASGFTFSDYYMTWVRQAPGKGLEWVAFIRNQARGYTSDHNPSVKGRFTISRDNAKNSLYLQMNSLRAEDTAVYYCARDRPSYYVLDYWGQGTTVTVSSGCPPCPAPEAAGAPSVFLFPPKPKDTLMISRTPEVTCVVVDVSHEDPEVKFNWYVDGVEVHNAKTKPREEQYNSTYRVVSVLTVLHQDWLNGKEYKCKVSNKALPAPIEKTISKAKGQPREPQVCTLPPSREEMTKNQVSLWCLVKGFYPSDIAVEWESNGQPENNYKTTPPVLDSDGSFFLYSKLTVDKSRWQQGNVFSCSVMHEALHNHYTQKSLSLSPG chain 2: DIQMTQSPSSLSASVGDRVTITCTSSQSLFNVRSGKNYLAWYQQKPGKAPKLLIYWASDRESGVPSRFSGSGSGTDFTLTISSLQPEDFATYYCKQSYDLFTFGGGTKVEIKGGGGSGGGGEVQLVESGGGLVQPGGSLRLSCAASGFTFSSYWMHWVRQAPGKGLEWIGEIKPSNELTNVHEKFKDRFTISVDKAKNSAYLQMNSLRAEDTAVYYCTRTITTTEGYWFFDVWGQGTLVTVSSGCPPCPAPEAAGAPSVFLFPPKPKDTLMISRTPEVTCVVVDVSHEDPEVKFNWYVDGVEVHNAKTKPREEQYNSTYRVVSVLTVLHQDWLNGKEYKCKVSNKALPAPIEKTISKAKGQPREPQVYTLPPCREEMTKNQVSLSCAVKGFYPSDIAVEWESNGQPENNYKTTPPVLDSDGSFFLVSKLTVDKSRWQQGNVFSCSVMHEALHNHYTQKSLSLSPG |  | 72 | 0.194 |  |
| GUCY2c-H2B4 bispecific antibody (bispecific antibody, human IgG1, Bispecific diabody-Fc (knob-in-hole, effector null human IgG1 Fc)) chain 1: DIQLTQSPSSLSASVGDRVTITCRASESVDYYGTSLMQWYQQKPGKPPKLLIYAASNVESGVPSRFSGSGSGTDFTLTISSLQPEDFATYYCQQTRKVYTFGQGTKLEIKGGGSGGGGEVQLVESGGGLVQPGGSLRLSCAASGFTFSDYYMTWVRQAPGKGLEWVAFIRNRARGYTSDHNPSVKGRFTISRDNAKNSLYLQMNSLRAEDTAVYYCARDRPSYYVLDYWGQGTTVTVSSGCPPCPAPEAAGAPSVFLFPPKPKDTLMISRTPEVTCVVVDVSHEDPEVKFNWYVDGVEVHNAKTKPREEQYNSTYRVVSVLTVLHQDWLNGKEYKCKVSNKALPAPIEKTISKAKGQPREPQVCTLPPSREEMTKNQVSLWCLVKGFYPSDIAVEWESNGQPENNYKTTPPVLDSDGSFFLYSKLTVDKSRWQQGNVFSCSVMHEALHNHYTQKSLSLSPG chain 2: DIVMTQSPDSLAVSLGERATINCKSSQSLFNVRSRKNYLAWYQQKPGQPPKLLISWASTRESGVPDRFSGSGSGTDFTLTISSLQAEDVAVYYCKQSYDLFTFGSGTKLEIKGGGSGGGGEVQLVESGGGLVQPGGSLRLSCAASGYTFTSYWMHWVRQAPGKGLEWIGEIKPSNGLTNYIEKFKNRFTISVDKAKNSAYLQMNSLRAEDTAVYYCTRTITTTEGYWFFDVWGQGTLVTVSSGCPPCPAPEAAGAPSVFLFPPKPKDTLMISRTPEVTCVVVDVSHEDPEVKFNWYVDGVEVHNAKTKPREEQYNSTYRVVSVLTVLHQDWLNGKEYKCKVSNKALPAPIEKTISKAKGQPREPQVYTLPPCREEMTKNQVSLSCAVKGFYPSDIAVEWESNGQPENNYKTTPPVLDSDGSFFLVSKLTVDKSRWQQGNVFSCSVMHEALHNHYTQKSLSLSPG |  |  |  | Kd [4]: 8.18 nM |

The next lines start with results.

| EC50 [1] [nM] | Kd [3] [nM] | Binder | In vitro Cytotoxicity [2] [nM] | other results |
| --- | --- | --- | --- | --- |
|  | 63.5 | GUCY2C-1678 bispecific antibody (bispecific antibody, Bispecific diabody-Fc; also called GUCY2c bispecific with CD3 variant 2B5-1038) chain 1: DIQLTQSPSSLSASVGDRVTITCRASESVDYYGSSLLQWYQQKPGKAPKLLIYAASKLASGVPSRFSGSGSGTDFTLTISSLQPEDFATYYCQQTRKAYTFGQGTKLEIKGGGSGGGGEVQLVESGGGLVQPGGSLRLSCAASGFTFSDYYMTWVRQAPGKGLEWVAFIRNQARGYTSDHNPSVKGRFTISRDNAKNSLYLQMNSLRAEDTAVYYCARDRPSYYVLDYWGQGTTVTVSSGCPPCPAPEAAGAPSVFLFPPKPKDTLMISRTPEVTCVVVDVSHEDPEVKFNWYVDGVEVHNAKTKPREEQYNSTYRVVSVLTVLHQDWLNGKEYKCKVSNKALPAPIEKTISKAKGQPREPQVCTLPPSREEMTKNQVSLWCLVKGFYPSDIAVEWESNGQPENNYKTTPPVLDSDGSFFLYSKLTVDKSRWQQGNVFSCSVMHEALHNHYTQKSLSLSPG chain 2: DIQMTQSPSSLSASVGDRVTITCTSDQSLFNVRSGKNYLAWYQQKPGKAPKLLIYWASDRESGVPSRFSGSGSGTDFTLTISSLQPEDFATYYCKQSYDLFTFGGGTKVEIKGGGGSGGGGEVQLVESGGGLVQPGGSLRLSCAASGFTFSSYWMHWVRQAPGKGLEWIGEIKPSNELTNVHEKFKDRFTISVDKAKNSAYLQMNSLRAEDTAVYYCTRTITTTEGYWFFDVWGQGTLVTVSSGCPPCPAPEAAGAPSVFLFPPKPKDTLMISRTPEVTCVVVDVSHEDPEVKFNWYVDGVEVHNAKTKPREEQYNSTYRVVSVLTVLHQDWLNGKEYKCKVSNKALPAPIEKTISKAKGQPREPQVYTLPPCREEMTKNQVSLSCAVKGFYPSDIAVEWESNGQPENNYKTTPPVLDSDGSFFLVSKLTVDKSRWQQGNVFSCSVMHEALHNHYTQKSLSLSPG | 0.247 |  |
|  | 78.6 | GUCY2C-1680 bispecific antibody (bispecific antibody, Bispecific diabody-Fc; also called GUCY2c bispecific with CD3 variant 2B5-1039) chain 1: DIQLTQSPSSLSASVGDRVTITCRASESVDYYGSSLLQWYQQKPGKAPKLLIYAASKLASGVPSRFSGSGSGTDFTLTISSLQPEDFATYYCQQTRKAYTFGQGTKLEIKGGGSGGGGEVQLVESGGGLVQPGGSLRLSCAASGFTFSDYYMTWVRQAPGKGLEWVAFIRNQARGYTSDHNPSVKGRFTISRDNAKNSLYLQMNSLRAEDTAVYYCARDRPSYYVLDYWGQGTTVTVSSGCPPCPAPEAAGAPSVFLFPPKPKDTLMISRTPEVTCVVVDVSHEDPEVKFNWYVDGVEVHNAKTKPREEQYNSTYRVVSVLTVLHQDWLNGKEYKCKVSNKALPAPIEKTISKAKGQPREPQVCTLPPSREEMTKNQVSLWCLVKGFYPSDIAVEWESNGQPENNYKTTPPVLDSDGSFFLYSKLTVDKSRWQQGNVFSCSVMHEALHNHYTQKSLSLSPG chain 2: DIQMTQSPSSLSASVGDRVTITCTSSESLFNVRSGKNYLAWYQQKPGKAPKLLIYWASDRESGVPSRFSGSGSGTDFTLTISSLQPEDFATYYCKQSYDLFTFGGGTKVEIKGGGGSGGGGEVQLVESGGGLVQPGGSLRLSCAASGFTFSSYWMHWVRQAPGKGLEWIGEIKPSNELTNVHEKFKDRFTISVDKAKNSAYLQMNSLRAEDTAVYYCTRTITTTEGYWFFDVWGQGTLVTVSSGCPPCPAPEAAGAPSVFLFPPKPKDTLMISRTPEVTCVVVDVSHEDPEVKFNWYVDGVEVHNAKTKPREEQYNSTYRVVSVLTVLHQDWLNGKEYKCKVSNKALPAPIEKTISKAKGQPREPQVYTLPPCREEMTKNQVSLSCAVKGFYPSDIAVEWESNGQPENNYKTTPPVLDSDGSFFLVSKLTVDKSRWQQGNVFSCSVMHEALHNHYTQKSLSLSPG | 0.385 |  |

From patent publication US20190382486A1 (Pfizer, published 2019)
